Data on two molecules can be found in US7205387B2, “Recombinant polypeptide useful for neurotrophin receptor mediated gene delivery and as neurotrophin agonist” (Agency for Science, Technology and Research, priority 2003, dated 2007).

Bridge positions count the residues as written; N and C are the ends. Ends that are not written are not given here.

One data set has as its system Akt. Nature of the data set: Phospho-Akt immunoblot in PC12 cells. In kind it is cell-based, rat. The note with it: 5 μM peptide, 20 min. How it is done: (§1) Immunoblotting experiments were conducted to test whether the chimeric polypeptides could, like NGF, induce autophosphorylation of TrkA and activation of its signal transduction pathways. PC12 cells were seeded in 6-well plates at a density of 2×10^6 cells/well and cultured in RPMI 1640 containing 0.5% FBS and 0.25% horse serum for 2 days. The low serum concentrations were necessary to reduce the basal levels of phosphorylation. The medium was refreshed two hours before beginning treatment. The cells were incubated with the polypeptides or NGF in serum-free medium for 15–20 min. The cells were then washed in PBS, lysed, and sonicated. The cell lysates were resolved by SDS-PAGE and transferred to a nitrocellulose membrane for immunoblotting. The primary antibodies used include Phospho-TrkA (Tyr490) antibody, Phospho-p44/p42 MAPK (Thr202/Tyr204) monoclonal antibody, and Phospho-Akt (Ser473) monoclonal antibody, all obtained from Cell Signaling Technology (Beverly, Mass., USA). Colorimetric detection was performed by standard techniques after using horse-radish peroxidase-conjugated secondary antibodies. In some experiments, TrkA tyrosine kinase inhibitors K-252a or AG879 (both from Calbiochem, La Jolla, Calif., USA) were used. In these cases, PC12 cells were incubated with 100 nM K-252a or 10 μM AG879 before addition of polypeptides or NGF.
On the technique in general: In western blotting, separated proteins are transferred to a membrane and probed.

In a further data set the test system is primary glial cells. As to the kind of experiment: Gene delivery to primary cultures of glial cells. The format is cell-based, rat. How it is done:
Primary cultures of glial cells were established from the cortices of 20-day old embryonic Wistar rats. Individual cells were collected as described above. The cells were plated at a density of 4×10^5 viable cells/cm^2 on poly-L-lysine/laminin coated dishes and grown to confluence for 7 days in DMEM/F12 medium supplemented with 10% FCS. The day before transfection, the cells were detached and plated into coated microplates at a density of 2.5×10^4 cells per well. Gene delivery complexes were also tested on primary cultures of cortical neurons and glial cells in a similar fashion. […] Four hours later, an equal volume of DMEM-F12/N2 was added. One to two days after transfection, the cell culture medium was removed and the cells were rinsed in phosphate-buffered saline (PBS). Enough Reporter Lysis Buffer (Promega, Wisconsin, Md., USA) to cover the bottom surface was added to each well (50 μl/well for 48-well plates). After one freeze-thaw cycle, the lysates were tested for luciferase activity using the Luciferase Assay System (Promega) and a single-tube luminometer (Berthold Lumat L B 9507, Bad Wildbad, Germany). The total protein concentration of each lysate was determined using the DC Protein assay (Bio-Rad, Hercules, Calif., USA). The results were expressed in relative light units (RLU) per milligram of total protein.

In data set [1] the test system is lumbar segment of the spinal cord. Nature of the data set: Gene delivery in vivo, intrathecal injection, lumbar spinal cord. Details: species or system rat. The note with it: 3 μg pCAGluc, PEI600 N/P 5, peptide N/P 5, intralumbar, 3 days. The source says: In vivo gene delivery was studied by intrathecal injections of adult Wistar rats (8 weeks old, 180–200 g). The rats were anesthetized by intraperitoneal injection of sodium pentobarbital. After the skin around L4–L5 was exposed, the gene delivery complex was slowly injected into the subarachnoid space using a syringe. A slight tail movement accompanied correct placement of the needle. After injection, the syringe was left in place for five minutes to limit diffusion caused by backflow pressure. Multiple injections were sometimes required to deliver the full volume of the complex. After injection, the skin was closed with surgical clips and the animals were kept warm until they recovered. […] The lumbar segment of the spinal cord and the lumbar dorsal root ganglia were excised. The tissues were homogenized in 100–400 μl of Reporter Lysis Buffer (Promega) depending on size and subjected to three freeze-thaw cycles. The lysates were centrifuged at 14000 g for 5 min at 4° C. The supernatant was tested for luciferase activity using the Luciferase Assay System (Promega) in a single-tube luminometer (Berthold Lumat LB 9507). The readings were normalized by the total protein content of the lysates, as measured by the DC Protein assay (Bio-Rad).

A further data set deals with Erk1 and Erk2. Nature of the data set: Phospho-Erk1/Erk2 (p44/p42 MAPK) immunoblot in PC12 cells. The format is cell-based, rat. The procedure: as §1
In data set [2] the test system is plasmid DNA. As to the kind of experiment: Atomic force microscopy of polypeptide-DNA complexes. In kind it is physicochemical. The procedure:
DNA samples, polypeptide-DNA complexes, and polypeptide-polycation-DNA complexes were prepared with a DNA concentration of 0.02 mg/ml. The samples were diluted ten-fold in HPLC-grade water, and 20 μl of each sample was deposited onto mica discs. After one minute, the mica discs were washed with HPLC-grade water and dried in a stream of filtered air. Images were acquired on a Nanoscope IIIa atomic force microscope (Digital Instruments, Santa Barbara, Calif., USA) operating in tapping mode in air, using Nanoprobe Silicon tips (Digital Instruments).

The test system of data set [3] is PC12 cells. As to the kind of experiment: PC12 neurite outgrowth assay. The format is cell-based, rat. The conditions noted are these: 8 μM, 3 days. The procedure: Chimeric polypeptides were examined for their ability to induce neurite outgrowth in PC12 cells. Polypeptides in a range of concentrations were added to PC12 cells cultured in serum-enriched RPMI-1640 medium. The cells were incubated for three days and photographed every 24 h.

Data set [4] deals with plasmid DNA. As to the kind of experiment: Ethidium bromide displacement assay. In kind it is binding. The note with it: 0.8 μg DNA pre-mixed with ethidium bromide. The procedure: In this assay, the quenching of the fluorescence of ethidium bromide intercalated in DNA is used to measure DNA-binding and condensing ability. Ethidium bromide (153 μl of a 0.01% solution) was added to 96 μg of plasmid DNA and diluted with water to a final volume of 6 ml. In wells of a 96-well microplate, various amounts of polypeptide were placed in a volume of 50 μl, to which 50 μl of the DNA-ethidium bromide solution was added. After five minutes of mixing, 100 μl of water was added. The fluorescence reading was taken using wavelengths of 485 nm for excitation and 593 nm for emission on a SPECTRAFluor Plus microplate reader (TECAN, Maennedorf, Switzerland).

The test system of data set [5] is PC12 cells. As to the kind of experiment: PC12 cell survival assay (MTT, serum-free medium). In kind it is cell-based, rat. The note with it: 8 μM, deprived of serum and NGF for 3 days. How it is done: Undifferentiated or differentiated (by 6-day treatment with 10 ng/ml NGF) PC12 cells seeded onto collagen-coated 96-well plates were exposed to serum-free RPMI-1640 medium containing either NGF or various concentrations of chimeric polypeptides. After 3–4 days of incubation, cell viability was measured by the standard MTT assay. Cell survival was expressed as a percentage of the viability of the NGF-treated control.

Regarding “CTTTHTFVKALTMDGKQAAWRFIRIDTACKKKKKKKKKK (CTTTHTFVKALTMDGKQAAWRFIRIDTACKKKKKKKKKK; disulfide 1-29) [NL4-10K]”, in the data set on Akt, the “activation (phosphorylation) of Akt” value is listed as “induced activation”. Further, the “difference between transfection efficiencies of NL4-10K and 10K” value with primary glial cells (peptide/DNA 0.75 nmol/μg (N/P ratio of 2.5), chloroquine) was “not significant”. Besides, in data set [1], the “transfection in spinal cord near the lumbar injection site relative to 10K control” value is “decreased relative to the 10K control”. Further, in the data set with Erk1 and Erk2 (5 μM peptide, 20 min), the “activation (phosphorylation) of Erk 1 and Erk 2” value is given as “induced activation”.

B1: SPKR4NL1-2: chimeric protein: (SPKR)4 DNA-binding domain, α-helical linker, targeting domain with loops 1 and 2 of NGF (aa 17–67), His10 tag (protein)
chain: MGHHHHHHHHHHSSGHIEGRHMSPKRSPKRSPKRSPKRGGTYLSEDELKAAEAAFKRHNPTGSCSVSVWVGDKTTATDIKGKEVMVLGEVNINNSVFKQYFFETKCRDPNPVDSG
modifications: SPKR4NL1-2
As for B1, in the data set on plasmid DNA [2] (PEI600 (N/P ratio of 5) added), the “DNA condensation seen by atomic force microscopy, with PEI600” value is “compact nanoparticles are formed”. Besides, the “DNA condensation seen by atomic force microscopy, peptide alone” value in the data set on plasmid DNA [2] (peptide and plasmid DNA without polycation) is given as “only partially condenses plasmid DNA”. Besides, the neurite outgrowth entry with PC12 cells [3] was “promotes neurite outgrowth”. In addition, the “difference between SPKR4NL1-2 and (SPKR)4 triple complexes” value with primary glial cells (0.25 μg/well pCAGluc, PEI600, 24 h) was “essentially no difference”. The “N/P ratio at which ethidium bromide fluorescence dropped sharply (DNA condensation)” value in the data set with plasmid DNA [4] is on record as “about 10 N/P ratio”. Moreover, in the data set with PC12 cells [5], the “PC12 viability as % of maximum NGF-promoted survival rate” value was found to be 80%. Also, the “Erk1 and Erk2 activation compared with (SPKR)4 control” value in the data set with Erk1 and Erk2 (1–8 μM, 15 min) was “higher level of Erk1 and Erk2 activation”.
